Reference: article PMC6475865
pKd: −log10 of the molar value.

Columns and labels:
[1] = system: Integrase IN_A (HIV-1 subtype A strain FSU-A); assay: DRaCALA (nitrocellulose); conditions: 20 mM HEPES pH 7.2, 10 mM DTT, 7.5 mM MgCl2, 25 C; DRaCALA: 5 nM DNA, 0-500 nM IN, 20 min
[2] = system: Integrase IN_CRF consensus (HIV-1 CRF63_02A1 (consensus of Siberian/Ural isolates)); assay: DRaCALA (nitrocellulose); conditions: 20 mM HEPES pH 7.2, 10 mM DTT, 7.5 mM MgCl2, 25 C; DRaCALA: 5 nM DNA, 0-500 nM IN, 20 min

How did the pKd [1] turn out when “GTGTGGAAAATCTCTAGCAGT (double strand) [U5B/U5A duplex]” was run?
Its pKd is 7.60.

And the pKd [2]?
The pKd was 7.64.
